According to patent publication US20160250307A1 (IMMATICS BIOTECHNOLOGIES, published 2016):

molecular target: HLA-A*02 (human); assay: UV-ligand exchange, anti-b2m ELISA; grade: exchange yield >=75%

| Binder | peptide exchange yield |
| --- | --- |
| KLSNVLQQV | ≥ 75% |
| SLLEEPNVIRV | ≥ 75% |
| LLLDKLILL | ≥ 75% |
| YLEPYLKEV | ≥ 75% |
| ALTSISAGV | ≥ 75% |
| TLGQIWDV | ≥ 75% |
| RLIDLHTNV | ≥ 75% |
| LLYEGKLTL | ≥ 75% |
| WLIEDGKVVTV | ≥ 75% |
| VLGEVKVGV | ≥ 75% |
| ALAEALKEV | ≥ 75% |
| KLFEEIREI | ≥ 75% |
| VMQDPEFLQSV | ≥ 75% |
| RVIEHVEQV | ≥ 75% |
| KLLDEVTYLEA | ≥ 75% |
| QLIEVSSPITL | ≥ 75% |
| ALQDQLVLV | ≥ 75% |
| SLSAFLPSL | ≥ 75% |
| ALQDAIRQL | ≥ 75% |
| NLIDLDDLYV | ≥ 75% |
| SVYDGKLLI | ≥ 75% |

| Binder | peptide exchange yield |
| --- | --- |
| AVIGGLIYV | ≥ 75% |
| ALNAVRLLV | ≥ 75% |
| VLIGSNHSL | ≥ 75% |
| GLSNLGIKSI | ≥ 75% |
| TLPDFRLPEI | ≥ 75% |
| QLHDFVMSL | ≥ 75% |
| LIGEFLEKV | ≥ 75% |
| ILADLNLSV | ≥ 75% |
| KVLDKVFRA | ≥ 75% |
| YIHNILYEV | ≥ 75% |
| KLGAVFNQV | ≥ 75% |
| ALPTVLVGV | ≥ 75% |
| ALLEADVNIKL | ≥ 75% |
| ALDAGAVYTL | ≥ 75% |
| KLLDLETERILL | ≥ 75% |
| ALLGKLDAI | ≥ 75% |
| KIAELLENV | ≥ 75% |
| LLIDVVTYL | ≥ 75% |
| ALLELDEPLVL | ≥ 75% |
| GLFAPLVFL | ≥ 75% |
| KIQEILTQV | ≥ 75% |

| Binder | peptide exchange yield |
| --- | --- |
| ALSQVTLLL | ≥ 75% |
| KIADFELPTI | ≥ 75% |
| RLFNDPVAMV | ≥ 75% |
| AMGEKSFSV | ≥ 75% |
| TVGGSEILFEV | ≥ 75% |
| KLLDTMVDTFL | ≥ 75% |
| SLLPQLIEV | ≥ 75% |
| GLLSGLDIMEV | ≥ 75% |
| ALYGRLEVV | ≥ 75% |
| VLMDKLVEL | ≥ 75% |
| LLFPHPVNQV | ≥ 75% |
| RLFADILNDV | ≥ 75% |
| KLYQEVEIASV | ≥ 75% |
| NLAEVVERV | ≥ 75% |
| ILSPLSVAL | ≥ 75% |
| GLAFSLNGV | ≥ 75% |
| RIAGIRGIQGV | ≥ 75% |
| TLGQFYQEV | ≥ 75% |
| LLLGERVAL | ≥ 75% |
| ALLETNPYLL | ≥ 75% |
| ALTSVVVTL | ≥ 75% |

molecular target: HLA-A*02 (human); assay: UV-ligand exchange, anti-b2m ELISA; grade: exchange yield >=50%

| Binder | peptide exchange yield |
| --- | --- |
| GLYGRTIEL | 50 to 75% |
| KILEETLYV | 50 to 75% |
| KIDEKNFVV | 50 to 75% |
| GVLPGLVGV | 50 to 75% |
| KLHEEIDRV | 50 to 75% |
| GLLDPNVKSIFV | 50 to 75% |
| ILADTFIGV | 50 to 75% |
| KLKETIQKL | 50 to 75% |
| GLIHLEGDTV | 50 to 75% |
| HLTEAIQYV | 50 to 75% |
| KLFSGDELLEV | 50 to 75% |
